We go through 1 substance from paper PMC6802964.

The target in assay [1] is T1, CyPet–Myo1^IQ12–YPet FRET reporter protein (S. pombe).
T1 sequence (Q9Y7Z8 whole entry, looked up): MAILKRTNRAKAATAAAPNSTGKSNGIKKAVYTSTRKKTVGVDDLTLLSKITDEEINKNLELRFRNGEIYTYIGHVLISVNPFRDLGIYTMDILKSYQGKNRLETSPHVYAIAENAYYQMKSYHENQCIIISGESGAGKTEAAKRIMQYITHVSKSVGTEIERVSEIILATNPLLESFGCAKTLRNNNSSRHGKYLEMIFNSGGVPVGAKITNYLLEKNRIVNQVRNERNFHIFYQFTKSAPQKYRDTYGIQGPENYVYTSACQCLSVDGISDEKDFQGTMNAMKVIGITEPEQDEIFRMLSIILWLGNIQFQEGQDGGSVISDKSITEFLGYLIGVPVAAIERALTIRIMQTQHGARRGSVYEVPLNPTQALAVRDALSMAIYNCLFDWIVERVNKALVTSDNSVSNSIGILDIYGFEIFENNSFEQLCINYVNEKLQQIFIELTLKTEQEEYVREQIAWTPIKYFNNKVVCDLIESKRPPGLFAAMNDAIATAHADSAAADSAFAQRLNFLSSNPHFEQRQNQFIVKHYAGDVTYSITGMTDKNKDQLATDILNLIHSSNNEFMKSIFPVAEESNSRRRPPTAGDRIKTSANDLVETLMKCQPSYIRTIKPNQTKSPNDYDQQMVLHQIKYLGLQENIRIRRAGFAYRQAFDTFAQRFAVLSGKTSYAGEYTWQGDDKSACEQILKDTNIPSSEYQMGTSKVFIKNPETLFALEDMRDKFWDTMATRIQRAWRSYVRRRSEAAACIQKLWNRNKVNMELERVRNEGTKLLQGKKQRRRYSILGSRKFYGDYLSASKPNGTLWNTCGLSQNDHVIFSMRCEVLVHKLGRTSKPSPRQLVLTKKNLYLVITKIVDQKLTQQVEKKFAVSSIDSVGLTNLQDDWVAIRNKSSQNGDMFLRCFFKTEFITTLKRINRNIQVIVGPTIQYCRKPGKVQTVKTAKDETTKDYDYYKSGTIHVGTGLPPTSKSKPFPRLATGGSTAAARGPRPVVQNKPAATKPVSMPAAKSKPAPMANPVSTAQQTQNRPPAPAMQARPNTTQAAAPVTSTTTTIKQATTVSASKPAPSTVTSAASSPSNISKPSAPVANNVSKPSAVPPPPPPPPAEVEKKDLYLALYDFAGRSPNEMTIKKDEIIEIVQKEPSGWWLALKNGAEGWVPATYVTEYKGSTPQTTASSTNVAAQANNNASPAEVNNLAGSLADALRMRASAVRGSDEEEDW
Kind of assay: other fluorescence titration; change of the CyPet-YPet FRET signal of the IQ-FRET protein (1 µM by the methods, 0.5 µM by the legend) with varying concentrations of Cam1 or Cam2; 140 mM KCl, 20 mM MOPS pH 7.0, with or without 2 mM MgCl2, 2 mM EGTA (absence of calcium).

The target of assay [2] is T2, CyPet–Myo1^IQ1–YPet FRET reporter protein (S. pombe).
T2 sequence (Q9Y7Z8 whole entry, looked up): T1 sequence (Q9Y7Z8 whole entry, looked up)
The assay is described as above.

pKd: −log10 of the molar value.

Regarding “Cam1 (wild type, amino-terminally acetylated fission yeast calmodulin) (from UniProt P05933 1-150) (natural protein)”, in assay [1], the KD of the first binding event was less than 0.1 µM and the KD of the second binding event came to 0.68 µM. Also, in assay [2], the pKd was more than 7.00.
